According to patent publication US20110123511A1 (ICAHN SCHOOL OF MEDICINE AT MOUNT SINAI, published 2011):
Changes are numbered by the printed parent chain.

B1: vSET triple mutant KR(M)R-to-AA(M)A (aa 85-88) (enzyme)
chain: MFNDRVIVKKSPLGGYGVFARKSFEKGELVEECLCIVRHNDDWGTALEDYLFSRKNMSAMALGFGAIFNHSKDPNARHELTAGLAAMAIFTIKPIAIGEEITISYGDDYWLSRPRLTQN
notes: elutes as a dimer like the wild type; also called KR(M)R/AA(M)A
B2: recombinant wild-type vSET expressed in E. coli BL21 (enzyme)
chain: B1 chain with A85K, A86R, A88R
notes: also called hexa-histidine tagged vSET; not shown: tag in the

Molecular target: the molecule itself
Test: gel filtration chromatography (self-association, homodimer)

Protein | binding result
B1 | binds
B2 | binds
